This note sets out measurements from PMC7367873, “Dissecting the sequence determinants for dephosphorylation by the catalytic subunits of phosphatases PP1 and PP2A” (Nature Communications, 2020).

Assay [1] concerns GFP-14-3-3β and its binding proteins. Briefly: GFP-14-3-3β co-IP with LC-MS/MS label-free quantification, untreated versus PP1c-treated. Set-up: species or system human. Particulars: pairwise comparison PP1 vs untreated, student's t-test; 3 replicates each; LC-MS/MS label-free quantification.
Another assay deals with GFP-14-3-3β. Put plainly: GFP-14-3-3β co-IP with LC-MS/MS, untreated GFP-14-3-3β versus GFP control (14-3-3 interactome). The following applies: pairwise comparison untreated GFP-14-3-3β vs GFP, student's t-test; 3 replicates each; LC-MS/MS label-free quantification. Format: binding, human.

B1: FOXK1 (protein, UniProt P85037 2-733, looked up)
Forkhead box protein K1: AEVGEDSGARALLALRSAPCSPVLCAAAAAAAFPAAAPPPAPAQPQPPPGPPPPPPPPLPPGAIAGAGSSGGSSGVSGDSAVAGAAPALVAAAAASVRQSPGPALARLEGREFEFLMRQPSVTIGRNSSQGSVDLSMGLSSFISRRHLQLSFQEPHFYLRCLGKNGVFVDGAFQRRGAPALQLPKQCTFRFPSTAIKIQFTSLYHKEEAPASPLRPLYPQISPLKIHIPEPDLRSMVSPVPSPTGTISVPNSCPASPRGAGSSSYRFVQNVTSDLQLAAEFAAKAASEQQADTSGGDSPKDESKPPFSYAQLIVQAISSAQDRQLTLSGIYAHITKHYPYYRTADKGWQNSIRHNLSLNRYFIKVPRSQEEPGKGSFWRIDPASEAKLVEQAFRKRRQRGVSCFRTPFGPLSSRSAPASPTHPGLMSPRSGGLQTPECLSREGSPIPHDPEFGSKLASVPEYRYSQSAPGSPVSAQPVIMAVPPRPSSLVAKPVAYMPASIVTSQQPAGHAIHVVQQAPTVTMVRVVTTSANSANGYILTSQGAAGGSHDAAGAAVLDLGSEARGLEEKPTIAFATIPAAGGVIQTVASQMAPGVPGHTVTILQPATPVTLGQHHLPVRAVTQNGKHAVPTNSLAGNAYALTSPLQLLATQASSSAPVVVTRVCEVGPKEPAAAVAATATTTPATATTASASASSTGEPEVKRSRVEEPSGAVTTPAGVIAAAGPQGPGTGE
On to B1, for which the “Difference (log2), PP1 vs untreated” value in assay [1] is on record as -2.312 log2. In the assay on GFP-14-3-3β, the “Difference (log2), untreated vs GFP” value is listed as 5.634 log2.

B2: AMER1 (protein, UniProt Q5JTC6 1-1135, looked up)
APC membrane recruitment …: METQKDEAAQAKGAAASGSTREQTAEKGAKNKAAEATEGPTSEPSSSGPGRLKKTAMKLFGGKKGICTLPSFFGGGRSKGSGKGSSKKGLSKSKTHDGLSEAAHGPEDVVSEGTGFSLPLPELPCQFPSSQSAHGALETGSRCKTSVAGATEKAVAEKFPSMPKPKKGLKGFFSSIRRHRKSKVTGAEQSEPGAKGPERVRARPHEHVSSAPQVPCFEETFQAPRKENANPQDAPGPKVSPTPEPSPPATEKMACKDPEKPMEACASAHVQPKPAPEASSLEEPHSPETGEKVVAGEVNPPNGPVGDPLSLLFGDVTSLKSFDSLTGCGDIIAEQDMDSMTDSMASGGQRANRDGTKRSSCLVTYQGGGEEMALPDDDDEEEEEEEEVELEEEEEEVKEEEEDDDLEYLWETAQMYPRPNMNLGYHPTTSPGHHGYMLLDPVRSYPGLAPGELLTPQSDQQESAPNSDEGYYDSTTPGFEDDSGEALGLVRRDCLPRDSYSGDALYEFYEPDDSLENSPPGDDCLYDLHGRSSEMFDPFLNFEPFLSSRPPGAMETEEERLVTIQKQLLYWELRREQLEAQEARAREAHAREAHAREAYTREAYGREAYAREAHTWEAHGREARTREAQAREVRCRETQVRETQARQEKPVLEYQMRPLGPSVMGLAAGVSGTSQISHRGITSAFPTTASSEPDWRDFRPLEKRYEGTCSKKDQSTCLMQLFQSDAMFEPDMQEANFGGSPRRAYPTYSPPEDPEEEEVEKEGNATVSFSQALVEFTSNGNLFSSMSCSSDSDSSFTQNLPELPPMVTFDIADVERDGEGKCEENPEFHNDEDLAASLEAFELGYYHKHAFNNYHSRFYQGLPWGVSSLPRYLGLPGLHPRPPPAAMALNRRSRSLDTAETLEMELSNSHLVQGYLESDELQAQQEDSDEEDEEEEEGEWSRDSPLSLYTEPPGAYDWPAWAPCPLPVGPGPAWISPNQLDRPSSQSPYRQATCCIPPMTMSISLSVPESRAPGESGPQLARPSHLHLPMGPCYNLQPQASQSMRARPRDVLLPVDEPSCSSSSGGFSPSPLPQAKPVGITHGIPQLPRVRPEHPQPQPTHYGPSSLDLSKERAEQGASLATSYSSTAMNGNLAK
For B2, the “Difference (log2), PP1 vs untreated” value in assay [1] was -2.386 log2. Moreover, the “Difference (log2), untreated vs GFP” value in the assay with GFP-14-3-3β came to 1.494 log2.

B3: FGD6 (protein, UniProt Q6ZV73 1-1430, looked up)
FYVE, RhoGEF and PH …: MTSAAEIKKPPVAPKPKFVVANNKPAPPPIAPKPDIVISSVPQSTKKMKPAIAPKPKVLKTSPVREIGQSPSRKIMLNLEGHKQELAESTDNFNCKYEGNQSNDYISPMCSCSSECIHKLGHRENLCVKQLVLEPLEMNENLENSKIDETLTIKTRSKCDLYGEKAKNQGGVVLKASVLEEELKDALIHQMPPFISAQKHRPTDSPEMNGGCNSNGQFRIEFADLSPSPSSFEKVPDHHSCHLQLPSDECEHFETCQDDSEKSNNCFQSSELEALENGKRSTLISSDGVSKKSEVKDLGPLEIHLVPYTPKFPTPKPRKTRTARLLRQKCVDTPSESTEEPGNSDSSSSCLTENSLKINKISVLHQNVLCKQEQVDKMKLGNKSELNMESNSDAQDLVNSQKAMCNETTSFEKMAPSFDKDSNLSSDSTTVDGSSMSLAVDEGTGFIRCTVSMSLPKQLKLTCNEHLQSGRNLGVSAPQMQKESVIKEENSLRIVPKKPQRHSLPATGVLKKAASEELLEKSSYPSSEEKSSEKSLERNHLQHLCAQNRGVSSSFDMPKRASEKPVWKLPHPILPFSGNPEFLKSVTVSSNSEPSTALTKPRAKSLSAMDVEKCTKPCKDSTKKNSFKKLLSMKLSICFMKSDFQKFWSKSSQLGDTTTGHLSSGEQKGIESDWQGLLVGEEKRSKPIKAYSTENYSLESQKKRKKSRGQTSAANGLRAESLDDQMLSRESSSQAPYKSVTSLCAPEYENIRHYEEIPEYENLPFIMAIRKTQELEWQNSSSMEDADANVYEVEEPYEAPDGQLQLGPRHQHSSSGASQEEQNDLGLGDLPSDEEEIINSSDEDDVSSESSKGEPDPLEDKQDEDNGMKSKVHHIAKEIMSSEKVFVDVLKLLHIDFRDAVAHASRQLGKPVIEDRILNQILYYLPQLYELNRDLLKELEERMLHWTEQQRIADIFVKKGPYLKMYSTYIKEFDKNIALLDEQCKKNPGFAAVVREFEMSPRCANLALKHYLLKPVQRIPQYRLLLTDYLKNLIEDAGDYRDTQDALAVVIEVANHANDTMKQGDNFQKLMQIQYSLNGHHEIVQPGRVFLKEGILMKLSRKVMQPRMFFLFNDALLYTTPVQSGMYKLNNMLSLAGMKVRKPTQEAYQNELKIESVERSFILSASSATERDEWLEAISRAIEEYAKKRITFCPSRSLDEADSENKEEVSPLGSKAPIWIPDTRATMCMICTSEFTLTWRRHHCRACGKIVCQACSSNKYGLDYLKNQPARVCEHCFQELQKLDHQHSPRIGSPGNHKSPSSALSSVLHSIPSGRKQKKIPAALKEVSANTEDSSMSGYLYRSKGNKKPWKHFWFVIKNKVLYTYAASEDVAALESQPLLGFTVIQVKDENSESKVFQLLHKNMLFYVFKAEDAHSAQKWIEAFQEGTIL
With B3, the “Difference (log2), PP1 vs untreated” value in assay [1] is -2.212 log2. Also, in the assay with GFP-14-3-3β, the “Difference (log2), untreated vs GFP” value came to 2.545 log2.

B4: CLASP2 (protein, UniProt O75122 1-1294, looked up)
CLIP-associating protein 2: MAMGDDKSFDDEESVDGNRPSSAASAFKVPAPKTSGNPANSARKPGSAGGPKVGGASKEGGAGAVDEDDFIKAFTDVPSIQIYSSRELEETLNKIREILSDDKHDWDQRANALKKIRSLLVAGAAQYDCFFQHLRLLDGALKLSAKDLRSQVVREACITVAHLSTVLGNKFDHGAEAIVPTLFNLVPNSAKVMATSGCAAIRFIIRHTHVPRLIPLITSNCTSKSVPVRRRSFEFLDLLLQEWQTHSLERHAAVLVETIKKGIHDADAEARVEARKTYMGLRNHFPGEAETLYNSLEPSYQKSLQTYLKSSGSVASLPQSDRSSSSSQESLNRPFSSKWSTANPSTVAGRVSAGSSKASSLPGSLQRSRSDIDVNAAAGAKAHHAAGQSVRSGRLGAGALNAGSYASLEDTSDKLDGTASEDGRVRAKLSAPLAGMGNAKADSRGRSRTKMVSQSQPGSRSGSPGRVLTTTALSTVSSGVQRVLVNSASAQKRSKIPRSQGCSREASPSRLSVARSSRIPRPSVSQGCSREASRESSRDTSPVRSFQPLASRHHSRSTGALYAPEVYGASGPGYGISQSSRLSSSVSAMRVLNTGSDVEEAVADALKKPARRRYESYGMHSDDDANSDASSACSERSYSSRNGSIPTYMRQTEDVAEVLNRCASSNWSERKEGLLGLQNLLKNQRTLSRVELKRLCEIFTRMFADPHGKRVFSMFLETLVDFIQVHKDDLQDWLFVLLTQLLKKMGADLLGSVQAKVQKALDVTRESFPNDLQFNILMRFTVDQTQTPSLKVKVAILKYIETLAKQMDPGDFINSSETRLAVSRVITWTTEPKSSDVRKAAQSVLISLFELNTPEFTMLLGALPKTFQDGATKLLHNHLRNTGNGTQSSMGSPLTRPTPRSPANWSSPLTSPTNTSQNTLSPSAFDYDTENMNSEDIYSSLRGVTEAIQNFSFRSQEDMNEPLKRDSKKDDGDSMCGGPGMSDPRAGGDATDSSQTALDNKASLLHSMPTHSSPRSRDYNPYNYSDSISPFNKSALKEAMFDDDADQFPDDLSLDHSDLVAELLKELSNHNERVEERKIALYELMKLTQEESFSVWDEHFKTILLLLLETLGDKEPTIRALALKVLREILRHQPARFKNYAELTVMKTLEAHKDPHKEVVRSAEEAASVLATSISPEQCIKVLCPIIQTADYPINLAAIKMQTKVIERVSKETLNLLLPEIMPGLIQGYDNSESSVRKACVFCLVAVHAVIGDELKPHLSQLTGSKMKLLNLYIKRAQTGSGGADPTTDVSGQS
For the molecule B4, in assay [1], the “Difference (log2), PP1 vs untreated” value was -2.4301 log2. For the same molecule, the “Difference (log2), untreated vs GFP” value with GFP-14-3-3β is 2.306 log2.

B5: PARD3 (protein, UniProt Q8TEW0 1-1356, looked up)
Partitioning defective 3 …: MKVTVCFGRTRVVVPCGDGHMKVFSLIQQAVTRYRKAIAKDPNYWIQVHRLEHGDGGILDLDDILCDVADDKDRLVAVFDEQDPHHGGDGTSASSTGTQSPEIFGSELGTNNVSAFQPYQATSEIEVTPSVLRANMPLHVRRSSDPALIGLSTSVSDSNFSSEEPSRKNPTRWSTTAGFLKQNTAGSPKTCDRKKDENYRSLPRDTSNWSNQFQRDNARSSLSASHPMVGKWLEKQEQDEDGTEEDNSRVEPVGHADTGLEHIPNFSLDDMVKLVEVPNDGGPLGIHVVPFSARGGRTLGLLVKRLEKGGKAEHENLFRENDCIVRINDGDLRNRRFEQAQHMFRQAMRTPIIWFHVVPAANKEQYEQLSQSEKNNYYSSRFSPDSQYIDNRSVNSAGLHTVQRAPRLNHPPEQIDSHSRLPHSAHPSGKPPSAPASAPQNVFSTTVSSGYNTKKIGKRLNIQLKKGTEGLGFSITSRDVTIGGSAPIYVKNILPRGAAIQDGRLKAGDRLIEVNGVDLVGKSQEEVVSLLRSTKMEGTVSLLVFRQEDAFHPRELNAEPSQMQIPKETKAEDEDIVLTPDGTREFLTFEVPLNDSGSAGLGVSVKGNRSKENHADLGIFVKSIINGGAASKDGRLRVNDQLIAVNGESLLGKTNQDAMETLRRSMSTEGNKRGMIQLIVARRISKCNELKSPGSPPGPELPIETALDDRERRISHSLYSGIEGLDESPSRNAALSRIMGESGKYQLSPTVNMPQDDTVIIEDDRLPVLPPHLSDQSSSSSHDDVGFVTADAGTWAKAAISDSADCSLSPDVDPVLAFQREGFGRQSMSEKRTKQFSDASQLDFVKTRKSKSMDLGIADETKLNTVDDQKAGSPSRDVGPSLGLKKSSSLESLQTAVAEVTLNGDIPFHRPRPRIIRGRGCNESFRAAIDKSYDKPAVDDDDEGMETLEEDTEESSRSGRESVSTASDQPSHSLERQMNGNQEKGDKTDRKKDKTGKEKKKDRDKEKDKMKAKKGMLKGLGDMFRFGKHRKDDKIEKTGKIKIQESFTSEEERIRMKQEQERIQAKTREFRERQARERDYAEIQDFHRTFGCDDELMYGGVSSYEGSMALNARPQSPREGHMMDALYAQVKKPRNSKPSPVDSNRSTPSNHDRIQRLRQEFQQAKQDEDVEDRRRTYSFEQPWPNARPATQSGRHSVSVEVQMQRQRQEERESSQQAQRQYSSLPRQSRKNASSVSQDSWEQNYSPGEGFQSAKENPRYSSYQGSRNGYLGGHGFNARVMLETQELLRQEQRRKEQQMKKQPPSEGPSNYDSYKKVQDPSYAPPKGPFRQDVPPSPSQVARLNRLQTPEKGRPFYS
On to B5, for which, in assay [1], the “Difference (log2), PP1 vs untreated” value is -2.404 log2. In the assay with GFP-14-3-3β, the “Difference (log2), untreated vs GFP” value was 5.534 log2.
